Reference: patent US20040127421A1 (KIMBERLY CLARK WORLDWIDE, published 2004)

T1: MMP-2 (Homo sapiens (Human), UniProt P08253 110-660)
T1 construct: an active enzyme without signal and propeptide is likely; also called matrix metalloproteinase-2
T1 sequence: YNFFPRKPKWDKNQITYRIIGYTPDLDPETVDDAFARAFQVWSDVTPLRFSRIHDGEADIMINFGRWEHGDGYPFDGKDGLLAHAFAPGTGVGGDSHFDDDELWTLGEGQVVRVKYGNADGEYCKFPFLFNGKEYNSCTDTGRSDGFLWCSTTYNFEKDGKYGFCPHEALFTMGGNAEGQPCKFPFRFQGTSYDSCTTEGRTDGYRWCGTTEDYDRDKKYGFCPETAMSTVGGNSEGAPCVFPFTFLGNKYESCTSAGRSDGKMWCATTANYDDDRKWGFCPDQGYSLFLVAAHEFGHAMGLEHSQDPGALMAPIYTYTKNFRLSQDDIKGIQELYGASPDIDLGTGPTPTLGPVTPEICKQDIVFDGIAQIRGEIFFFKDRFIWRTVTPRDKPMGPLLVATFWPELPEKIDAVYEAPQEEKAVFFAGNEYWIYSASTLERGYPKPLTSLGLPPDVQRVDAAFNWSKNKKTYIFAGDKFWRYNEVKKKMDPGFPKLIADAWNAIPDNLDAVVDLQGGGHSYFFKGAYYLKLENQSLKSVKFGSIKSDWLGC

T2: MMP-7 (UniProt P09237 95-267, limits assumed)
T2 construct: also called matrix metalloproteinase-7
T2 sequence (looked up): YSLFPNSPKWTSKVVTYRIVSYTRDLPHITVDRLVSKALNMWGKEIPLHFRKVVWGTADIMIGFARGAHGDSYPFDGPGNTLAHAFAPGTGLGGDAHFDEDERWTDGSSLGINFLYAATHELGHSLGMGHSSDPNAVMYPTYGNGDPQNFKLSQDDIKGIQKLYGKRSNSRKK


Key:
MMP-2 = target: T1, MMP-2; test: isothermal titration calorimetry, 1 mM 19-mer into 20 µM MMP-2, 20 mM cacodylate pH 6.8, 10 mM NaCl, 25° C.
Active MMP-9 enzyme [1] = target: T3, Active MMP-9 enzyme (UniProt P14780 107-707, limits assumed); test: enzyme inhibition, fluoresceinated collagen substrate, Dixon plot
T3 construct: mature; also called matrix metalloproteinase-9; mature MMP-9
Description: Two enzymatic assays were performed. The first assay measured the enzymatic hydrolysis of fluoresceinated collagen by MMP-9 as a function of time. […] The protein mixture was added to the collagen substrate, and was quickly mixed. Fluorescence emission intensity at 520 nm was measured as a function of time (excitation wavelength 495 nm) in a Shimadzu RF5301 fluorometer (Lakowicz, 1983). The fluorescein release assay was used to determine the inhibitory constant (Ki) of the peptide inhibitor ([I]) according to Segel (1993) via the use of Dixon plots (1/v vs. [I]), such that: […]

MMP-7 = target: T2, MMP-7; test: enzyme inhibition, FRET peptide substrate
Description: (§1) The second assay utilized the technique of fluorescence resonance energy transfer (FRET). The substrate peptide (Calbiochem) of seven amino acids was coupled to a carboxyl terminal dinitrophenyl acceptor, and an amino terminal 2-aminobenzo-anthraniloyl (Abz) moiety donor. […] The protein mixture was added to the fluorescent peptide substrate, and was quickly mixed. Fluorescence intensity as a function of time was measured with a Dynex MFX fluorescence microtiter plate reader. Fluorescence intensity was related back to moles of peptide cleaved by producing a standard curve with an Abz containing non-FRET peptide.
(§2) These assays utilized FRET peptides that incorporated specific MMP cleavage sites into their sequence.

MMP-3 = target: T4, MMP-3 (UniProt P08254 100-477, limits assumed); test: enzyme inhibition, FRET peptide substrate
T4 construct: also called matrix metalloproteinase-3
Description: as §1, §2

Active MMP-9 enzyme [2] = target: T3, Active MMP-9 enzyme; test: enzyme inhibition, FRET peptide substrate
Description: as §1, §2

Active MMP-9 enzyme [3] = target: T3, Active MMP-9 enzyme; test: isothermal titration calorimetry, 1 mM peptide into 20 µM MMP-9, 20 mM cacodylate pH 6.8, 20 mM NaCl
Description: Isothermal titration calorimetry (ITC) was performed with a VP-ITC instrument from MicroCal, Inc. Titrations were carried out by injecting 5 μL of an inhibitor peptide solution (at concentration ranges from 0.5 mM to 2.0 mM) into the 1.4 mL stirred reaction cell. MMP-9 ranged in concentration from 50 to 80 μM in the cell. Both the inhibitor and the enzyme were in 20 mM sodium cacodylate (pH 5.5-7.0), 40 mM NaCl, or 20 mM Tris-HCl (pH 7.0-7.5), 40 mM NaCl. Titrations were conducted between 20° C. and 40° C. Typical experimental conditions for the titrations were a 10 second injection period followed by a 240 second delay between injections for a total of 40 injections. Blank titrations of inhibitor peptide into buffer were performed in order to correct for heats of dilution and mixing.
The peptide was dissolved in 20 mM cacodylate (pH 6.8), 20 mM NaCl at a final concentration of 1 mM. MMP-9 was dialyzed into the same buffer at a final concentration of 20 μM. A series of standard injections were performed as described above.

Active MMP-9 enzyme [4] = target: T3, Active MMP-9 enzyme; test: SPR (BIACore-X), calculated from ka/kd
Description: MMP-9 at a concentration of 75 ng/μL was coupled to the activated surface at a flow rate of 10 μL per minute for ten minutes. The final surface was inactivated by flowing 1 M ethanolamine-HCl at a rate of 10 μL per minute for five minutes over the sensor surface. […] The association and dissociation phases of the binding isotherms were smoothed by an automated FFT routine prior to modeling rate constants. Binding isotherms were evaluated by simultaneously fitting the forward (kₐ) and reverse (kd) rate constants to:
There was an observed bulk transport effect of approximately 100 response units at the start of the dissociation phase that was not modeled.

T3 sequence (P14780 107-707 limits assumed): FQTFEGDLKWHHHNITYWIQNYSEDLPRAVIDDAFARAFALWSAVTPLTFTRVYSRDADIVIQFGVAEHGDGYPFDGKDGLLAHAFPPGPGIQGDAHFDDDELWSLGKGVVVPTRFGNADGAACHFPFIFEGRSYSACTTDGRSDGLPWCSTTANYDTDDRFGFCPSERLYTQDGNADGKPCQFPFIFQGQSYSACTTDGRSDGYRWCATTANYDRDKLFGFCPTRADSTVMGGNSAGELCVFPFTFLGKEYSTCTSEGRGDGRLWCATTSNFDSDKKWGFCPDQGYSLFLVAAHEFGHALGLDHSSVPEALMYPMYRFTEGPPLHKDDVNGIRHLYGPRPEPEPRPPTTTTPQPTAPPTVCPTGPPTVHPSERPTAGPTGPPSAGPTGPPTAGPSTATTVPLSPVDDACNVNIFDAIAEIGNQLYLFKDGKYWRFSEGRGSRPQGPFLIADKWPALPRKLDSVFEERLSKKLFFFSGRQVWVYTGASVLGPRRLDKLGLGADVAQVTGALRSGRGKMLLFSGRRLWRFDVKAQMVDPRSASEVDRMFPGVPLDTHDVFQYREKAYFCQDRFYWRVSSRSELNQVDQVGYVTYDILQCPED
T4 sequence (P08254 100-477 limits assumed): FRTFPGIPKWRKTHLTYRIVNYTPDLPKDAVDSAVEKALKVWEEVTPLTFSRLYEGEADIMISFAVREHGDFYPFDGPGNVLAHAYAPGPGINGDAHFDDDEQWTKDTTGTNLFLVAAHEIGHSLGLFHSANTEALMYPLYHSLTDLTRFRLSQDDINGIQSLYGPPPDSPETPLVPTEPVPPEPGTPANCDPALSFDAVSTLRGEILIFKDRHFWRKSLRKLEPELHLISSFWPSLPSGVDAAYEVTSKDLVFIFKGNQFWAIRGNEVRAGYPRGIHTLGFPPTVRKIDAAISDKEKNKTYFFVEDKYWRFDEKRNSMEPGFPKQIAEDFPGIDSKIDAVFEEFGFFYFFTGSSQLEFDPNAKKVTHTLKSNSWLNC

Binder | Ka (MMP-2) | Stoichiometry (MMP-2) | ΔH (MMP-2) | ΔS (MMP-2) | Ki (Active MMP-9 enzyme [1]) | Ki (MMP-7) | Ki (MMP-3) | Ki (Active MMP-9 enzyme [2]) | Ka (Active MMP-9 enzyme [3]) | Stoichiometry (Active MMP-9 enzyme [3]) | ΔH (Active MMP-9 enzyme [3]) | ΔS (Active MMP-9 enzyme [3]) | Ka (Active MMP-9 enzyme [4])
H-PRCGNPDVANYNFFPRKPK-OH (Synthesized by Sigma-Genosys, >95% pure by RP-HPLC; Free termini; the acetylated/amidated Ac-19-mer was used only in migration assays; also called 19mer peptide) [19-mer (SEQ ID NO:11) PRCGNPDVANYNFFPRKPK] | 2.4e+06 M⁻¹ | 0.99 | -15.4 kcal/mol | -21.1 cal mol^-1 K^-1 | 30.3 µM | 22.8 µM | 6.4 µM | 45.2 µM | 1.65e+06 M⁻¹ | 0.975 | -26.1 kcal/mol | -11.6 cal mol^-1 K^-1 | 5.3e+06 M⁻¹
PRCGNPDVA [9-mer (SEQ ID NO:12) PRCGNPDVA] |  |  |  |  | 186 µM |  |  | 233 µM |  |  |  |  | 
NYNFFPRKPK [10-mer (SEQ ID NO:13) NYNFFPRKPK] |  |  |  |  | 221 µM |  |  | 328 µM |  |  |  |  | 
